Tested on: MS2 coat protein
Experiment: apparent KD of MS2 coat protein; designed switch direction (-1 OFF switch, 1 ON switch): 1; higher = weaker reporter binding
Method in brief: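 RNA switches sharing common flanks were transcribed by stalled E. coli RNA polymerase on Illumina chips. A doubling series of SNAP-549-labelled MS2 coat protein, from 0.7 or 1.5 nM to 3 µM, was applied in Tris-HCl pH 7.5 buffer with KCl, MgCl2, BSA, DTT, tRNA and Tween-20. Each step lasted 0.8–1.5 h at the bottom of the series and 10–20 min at the top. Normalised cluster fluorescence was curve-fitted, giving apparent KD as the per-design median over clusters.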

[1] = input ligand: microRNA oligo, concentration not stated
[2] = Eterna round: R95, input ligand: FMN 200 uM
[3] = Eterna round: R95, input ligand: microRNA oligo, concentration not stated
[4] = Eterna round: R95, input ligand: none

Row | Sequence | apparent KD of MS2 coat protein (input ligand: FMN 200 uM) [nM] | apparent KD of MS2 coat protein [1] [nM] | apparent KD of MS2 coat protein (input ligand: none) [nM] | apparent KD of MS2 coat protein [2] [nM] | apparent KD of MS2 coat protein [3] [nM] | apparent KD of MS2 coat protein [4] [nM]
1 | AGAUAUCCACGACAUGAGGAUCACCCAUGUUGCUACGACAUGGAGGAUAUUCACGAUACACCUGUGAAGAAGGCUAAGGAUAUU [Eternabot solution 16] (Eterna round: R96, puzzle: Same State NG 3) | 631 | 508 | 776 | – | – | –
2 | GCUACAUGAGGAUCACCCAUGUGUGUGUGGGAGUGAGUGGCUUAGGAUAUCUAUGAUUUUAGUUGAGAGAAGGAGGAUUGCUGU [SS-NG3-LRO09] (Eterna round: R96, puzzle: Same State NG 3) | 471 | 317 | 336 | – | – | –
3 | UCUUGGUUUUUGCUCGUUUUUUGUGUUGAACAUGAGGAUCACCCAUGUAUUGUACGGUCCAAUUUGAUAGUGGUCCG [JMF 28] (puzzle: Sensor for hsa-mir-208a) | – | – | – | 25.5 | 14.9 | 25.7
4 | CGUCCAGCCUGAGCUGGACAAAAGCAUGUACAUGAGGAUCACCCAUGUUCAUGUACAAGCUUUUUGCUCGUCUUACU [salish99_208a_r3_092x] (puzzle: Sensor for hsa-mir-208a) | – | – | – | 590 | 15.7 | 793
5 | GGUCCAGCCUGAGCUGGACAAAAGCAUGUACAUGAGGAUCACCCAUGUCAUGUACAAGCUUUUUGCUCGUCUUAAGU [Mat - hsa-mir-208a - 86] (Eterna round: R96, puzzle: Sensor for hsa-mir-208a) | 625 | 14.1 | 687 | – | – | –
6 | UUAAUGAUGAUAGGAUAUACAUGAGGAAUUCUCGUAGAAGGAUCAUGACAUGAGGAUCACCCAUGUAUCGCUCGAUAGAGCGUA [Mat - Same State NG 1 - JL mod - D34] (Eterna round: R96, puzzle: Same State NG 1) | 844 | 142 | 158 | – | – | –
7 | CAUCGUUUGAUAGGAUAUCGCUAUACAUGAGGAUCACCCAUGUUUACCACGCUGGUUUUUCAUACCGAGAAGGAUUCUGAUGAC [salish99_SSNG02_r04_014] (Eterna round: R96, puzzle: Same State NG 2) | 27.3 | 27.7 | 30.2 | – | – | –
8 | AGUCCAGCCAGAGCUGGACAAAAGCAUGUACAUGAGGAUCACCCAUGUUCAUGUACAAGCUUUUUGCAAGUCAAAAU [Mat - hsa-mir-208a - Mod of JL - 83] (Eterna round: R96, puzzle: Sensor for hsa-mir-208a) | 578 | 16 | 592 | – | – | –
9 | CUGAGGAAGAGAGAGGAUAUCCAAAGGAAAACAUGAGGAUCACCCAUGUAAAAGGUAGGAAAUUGGGAGAAGGCUCAAGAGAGAG [salish99-ss2-068] (Eterna round: R96, puzzle: Same State 2) | 32.3 | 38.3 | 39.3 | – | – | –
10 | UGUUGUAUUACAGGAUAUCUAGCAUUUUUAUUUAGAGAAGGGUAUUCACAUGAGGAUCACCCAUGUAUAUACGAGGAAGUUGUG [JMF's solution 32] (Eterna round: R96, puzzle: Same State NG 1) | 54.9 | 42.1 | 51.9 | – | – | –
11 | GCUCGCACGAUGACCCACAUGAGGAUCACCCAUGUGCUUGGGCAGGAUAUCUAGAUUAAGGAUGUAGAGAAGGGUCGAGCGAGC [SameState NG3 #28] (Eterna round: R96, puzzle: Same State NG 3) | 303 | 69.6 | 243 | – | – | –
12 | AAACGGUCGCUGCGGCAACCACAUGAGGAUCACCCAUGUACAUAGGAUAUCGCCUAAAAUACUGGCGAGAAGGGUGAUUAAAGA [Onbiriza] (Eterna round: R96, puzzle: Same State NG 3) | 28.7 | 17.9 | 73.7 | – | – | –
